Measurements taken from the supplement of paper PMC11136658.

Test system: peptide library, one residue held at a place counted from the Y acceptor
Assay: relative phosphorylation of the sub-library (ratio to the mean residue at this position); higher = residue favoured
Procedure, shortened: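 Peptide library mixtures, biotinylated and centred on Tyr, each fixed one residue at one position from −5 to +5. Purified recombinant kinases were incubated with them for 90 min in 384-well plates alongside 50 μM ATP and γ-32P-ATP, and the captured, rinsed peptides on streptavidin membranes were measured by phosphorimaging and ImageQuant. Normalization divided each position's intensities by the sum of its 18 randomized residues (16 for the Ser/Thr-free library) and multiplied by that number, so that values give phosphorylation relative to the mean randomized residue.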

MET, construct: aa956-end, human, sequence (P08581 956-1390, looked up): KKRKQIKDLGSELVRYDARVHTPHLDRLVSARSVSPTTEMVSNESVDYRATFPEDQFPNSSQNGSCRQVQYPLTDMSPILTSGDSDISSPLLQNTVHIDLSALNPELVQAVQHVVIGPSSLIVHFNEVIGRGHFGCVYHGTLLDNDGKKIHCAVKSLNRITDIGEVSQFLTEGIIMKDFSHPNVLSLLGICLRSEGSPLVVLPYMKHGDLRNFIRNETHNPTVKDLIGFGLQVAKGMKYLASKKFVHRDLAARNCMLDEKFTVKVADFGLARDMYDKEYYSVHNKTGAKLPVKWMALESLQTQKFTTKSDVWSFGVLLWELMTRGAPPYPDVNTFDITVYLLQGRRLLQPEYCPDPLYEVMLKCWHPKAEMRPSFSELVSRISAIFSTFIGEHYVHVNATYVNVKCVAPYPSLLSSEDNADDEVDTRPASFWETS

MET, construct: aa956-end, human (from UniProt P08581)
relative phosphorylation
Details | at +1 | at +2 | at +3 | at +4 | at +5 | at -1 | at -2 | at -3 | at -4 | at -5
A fixed | 1.33 | 1.03 | 0.632 | 0.901 | 1.11 | 0.739 | 1.1 | 0.977 | 1.04 | 1.05
D fixed | 0.433 | 0.808 | 0.32 | 0.658 | 0.938 | 1.86 | 1.52 | 1.64 | 1.4 | 1.27
E fixed | 0.821 | 0.83 | 0.252 | 0.581 | 0.861 | 1.37 | 1.45 | 1.79 | 1.61 | 1.09
F fixed | 1.25 | 1.07 | 1.28 | 1.3 | 1.05 | 0.688 | 0.534 | 0.663 | 0.914 | 0.869
G fixed | 0.609 | 0.616 | 0.564 | 1.02 | 0.906 | 0.478 | 1.21 | 1.22 | 1.21 | 1.11
H fixed | 1.34 | 0.874 | 0.869 | 0.998 | 0.879 | 1.24 | 0.819 | 0.911 | 0.916 | 1
I fixed | 1.4 | 0.913 | 2.4 | 0.797 | 0.796 | 1.7 | 0.711 | 0.529 | 0.737 | 0.721
K fixed | 0.531 | 0.705 | 0.431 | 0.87 | 0.978 | 0.496 | 0.738 | 0.866 | 0.86 | 1.19
L fixed | 0.758 | 0.935 | 1.9 | 0.771 | 1.02 | 1.06 | 0.704 | 0.558 | 0.728 | 0.724
M fixed | 0.84 | 0.833 | 1.43 | 0.883 | 0.965 | 0.774 | 0.583 | 0.596 | 0.746 | 0.733
N fixed | 0.574 | 1.29 | 0.537 | 0.875 | 1.02 | 1.26 | 1.16 | 1.37 | 0.984 | 0.995
P fixed | 0.442 | 0.961 | 1.36 | 1.09 | 1.21 | 0.659 | 1.59 | 1.22 | 1.18 | 1.16
Q fixed | 1.21 | 1.03 | 0.578 | 0.994 | 0.932 | 1.12 | 1.17 | 1.1 | 1.07 | 0.976
R fixed | 0.887 | 1.07 | 0.554 | 1.06 | 1.05 | 0.597 | 0.88 | 0.918 | 0.995 | 1.18
S fixed | 1.11 | 1.25 | 0.616 | 0.957 | 1.2 | 0.704 | 1.34 | 1.27 | 0.948 | 1
T fixed | 1.26 | 1.18 | 0.723 | 0.899 | 1.02 | 1.11 | 0.99 | 0.977 | 0.767 | 0.893
V fixed | 1.99 | 1.07 | 1.72 | 0.851 | 0.867 | 1.21 | 0.868 | 0.605 | 0.711 | 0.735
W fixed | 1.22 | 1.54 | 1.84 | 2.49 | 1.2 | 0.931 | 0.629 | 0.784 | 1.19 | 1.31
pThr fixed | 1.16 | 1.4 | 0.271 | 0.399 | 0.597 | 2.21 | 1.93 | 1.77 | 1.38 | 1.32
pTyr fixed | 3.19 | 2.63 | 0.524 | 0.871 | 0.771 | 4.16 | 1.47 | 1.82 | 2.14 | 1.64

MKK6, construct: Full length, human (from UniProt P52564)
relative phosphorylation
Details | at +1 | at +2 | at +3 | at +4 | at +5 | at -1 | at -2 | at -3 | at -4 | at -5
A fixed | 0.98 | 0.864 | 0.898 | 0.991 | 0.809 | 1.01 | 0.924 | 1.01 | 1.08 | 1.07
D fixed | 1.16 | 1.47 | 1.16 | 1.39 | 1.26 | 1.56 | 1.38 | 1.17 | 1.2 | 1.25
E fixed | 1.18 | 1.32 | 1.29 | 1.24 | 1.3 | 1.41 | 1.31 | 1.03 | 1.18 | 1.22
F fixed | 0.736 | 1.04 | 1.08 | 1.11 | 1.06 | 0.746 | 0.926 | 1.05 | 0.926 | 1.03
G fixed | 1.45 | 0.959 | 0.966 | 1.04 | 1.06 | 1.31 | 0.972 | 0.972 | 1.21 | 1.04
H fixed | 0.977 | 1.01 | 0.93 | 1.02 | 0.997 | 1.08 | 1.08 | 1.01 | 1.04 | 1.1
I fixed | 0.66 | 0.709 | 0.711 | 0.742 | 0.819 | 0.643 | 0.668 | 0.746 | 0.718 | 0.798
K fixed | 0.807 | 0.912 | 0.926 | 0.872 | 0.845 | 0.724 | 0.915 | 1.02 | 0.841 | 0.922
L fixed | 0.816 | 0.825 | 0.76 | 0.83 | 0.896 | 0.814 | 0.819 | 0.859 | 0.904 | 0.791
M fixed | 0.975 | 0.862 | 0.925 | 0.897 | 0.928 | 0.891 | 0.891 | 0.855 | 0.886 | 0.796
N fixed | 1.11 | 0.973 | 1 | 0.958 | 1.03 | 1.09 | 1.19 | 1.12 | 0.966 | 1.16
P fixed | 1.18 | 1.03 | 1.12 | 1.2 | 1.05 | 1.03 | 0.989 | 0.851 | 1.09 | 1.03
Q fixed | 1.02 | 0.887 | 0.978 | 0.934 | 1.08 | 1.11 | 1.01 | 1.25 | 1.07 | 1.01
R fixed | 1.05 | 0.781 | 0.921 | 0.867 | 0.93 | 0.76 | 0.866 | 1.19 | 0.955 | 0.928
V fixed | 0.738 | 0.797 | 0.832 | 0.736 | 0.792 | 0.569 | 0.691 | 0.746 | 0.817 | 0.778
W fixed | 1.15 | 1.55 | 1.52 | 1.17 | 1.14 | 1.25 | 1.36 | 1.12 | 1.12 | 1.08
pThr fixed | 1.51 | 1.74 | 1.23 | 1.52 | 1.24 | 1.39 | 1.11 | 1.57 | 1.29 | 1.34
pTyr fixed | 1.13 | 1.18 | 1.3 | 1.36 | 1.41 | 1.85 | 1.21 | 1.33 | 1.1 | 1.26
